From publication PMC9482650, “Quantitative fragmentomics allow affinity mapping of interactomes” (Nature Communications, 2022)

Legend:
Test in all cases: holdup assay
Set-up in all cases: key: below the threshold = too weak to quantify, mostly under pKd 3.1 to 4
Conditions in all cases: plain residues with an end cap or a label only (N-terminal biotin on a linker: ttds)
AHNAK2, Q8IVF2 = target: AHNAK2, Q8IVF2
USH1C_2, Q9Y6N9 = target: T1, USH1C_2, Q9Y6N9
T1 sequence (Q9Y6N9 206-303, limits assumed, looked up): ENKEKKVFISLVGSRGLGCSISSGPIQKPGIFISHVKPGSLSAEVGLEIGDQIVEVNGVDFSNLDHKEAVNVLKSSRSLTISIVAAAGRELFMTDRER

MAGI1_4, Q96QZ7 = target: MAGI1_4, Q96QZ7
SHANK2, Q9UPX8 = target: T2, SHANK2, Q9UPX8
T2 sequence (Q9UPX8 621-730, limits assumed, looked up): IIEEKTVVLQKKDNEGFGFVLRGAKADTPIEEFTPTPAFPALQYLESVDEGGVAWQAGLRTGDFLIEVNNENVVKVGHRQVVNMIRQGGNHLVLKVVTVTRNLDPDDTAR

GIPC3, Q8TF64 = target: GIPC3, Q8TF64
MPP5, Q8N3R9 = target: T3, MPP5, Q8N3R9
T3 sequence (Q8N3R9 251-346, limits assumed, looked up): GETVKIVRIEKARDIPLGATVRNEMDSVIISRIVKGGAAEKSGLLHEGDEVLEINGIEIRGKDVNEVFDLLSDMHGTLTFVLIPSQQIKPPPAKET

PARD3_1, Q8TEW0 = target: PARD3_1, Q8TEW0
RGS12, O14924 = target: T4, RGS12, O14924
T4 sequence (O14924 17-108, limits assumed, looked up): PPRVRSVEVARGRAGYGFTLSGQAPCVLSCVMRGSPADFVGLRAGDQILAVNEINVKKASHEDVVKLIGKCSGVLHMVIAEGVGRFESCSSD

IL16_2, Q14005 = target: IL16_2, Q14005
PARD3B_2, Q8TEW8 = target: PARD3B_2, Q8TEW8
RIMS2, Q9UQ26 = target: RIMS2, Q9UQ26
Inadl_7, Q8NI35 = target: Inadl_7, Q8NI35
SHROOM2, Q13796 = target: T5, SHROOM2, Q13796
T5 sequence (Q13796 21-118, limits assumed, looked up): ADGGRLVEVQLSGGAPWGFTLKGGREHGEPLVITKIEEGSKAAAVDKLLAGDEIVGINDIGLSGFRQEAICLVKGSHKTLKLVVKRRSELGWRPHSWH

MPDZ_11, O75970 = target: T6, MPDZ_11, O75970
T6 sequence (O75970 1720-1817, limits assumed, looked up): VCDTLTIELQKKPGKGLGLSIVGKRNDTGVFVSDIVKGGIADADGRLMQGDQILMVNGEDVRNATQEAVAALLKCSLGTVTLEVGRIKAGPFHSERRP

PARD3B_3, Q8TEW8 = target: PARD3B_3, Q8TEW8
SIPA1L3, O60292 = target: T7, SIPA1L3, O60292
T7 sequence (O60292 961-1052, limits assumed, looked up): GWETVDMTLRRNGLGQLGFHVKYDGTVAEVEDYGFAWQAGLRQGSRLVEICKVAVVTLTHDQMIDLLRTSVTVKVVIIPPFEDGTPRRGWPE

PDZD2_4, O15018 = target: T8, PDZD2_4, O15018
T8 sequence (O15018 723-823, limits assumed, looked up): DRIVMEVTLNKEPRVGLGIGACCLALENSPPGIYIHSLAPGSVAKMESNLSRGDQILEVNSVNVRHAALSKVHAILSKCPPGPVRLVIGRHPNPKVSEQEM

PTPN13_5, Q12923 = target: T9, PTPN13_5, Q12923
T9 sequence (Q12923 1877-1975, limits assumed, looked up): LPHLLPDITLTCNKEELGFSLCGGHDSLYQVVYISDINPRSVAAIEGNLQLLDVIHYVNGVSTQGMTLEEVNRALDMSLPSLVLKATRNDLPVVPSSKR

MPDZ_2, O75970 = target: T10, MPDZ_2, O75970
T10 sequence (O75970 252-347, limits assumed, looked up): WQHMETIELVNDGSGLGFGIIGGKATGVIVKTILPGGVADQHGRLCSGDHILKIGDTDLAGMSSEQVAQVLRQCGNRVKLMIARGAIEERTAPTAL

PDZD2_6, O15018 = target: T11, PDZD2_6, O15018
T11 sequence (O15018 2745-2839, limits assumed, looked up): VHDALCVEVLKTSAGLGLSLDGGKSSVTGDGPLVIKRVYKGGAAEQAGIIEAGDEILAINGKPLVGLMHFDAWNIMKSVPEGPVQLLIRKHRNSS

NHERF1_1, O14745 = target: T12, NHERF1_1, O14745
T12 sequence (O14745 9-104, limits assumed, looked up): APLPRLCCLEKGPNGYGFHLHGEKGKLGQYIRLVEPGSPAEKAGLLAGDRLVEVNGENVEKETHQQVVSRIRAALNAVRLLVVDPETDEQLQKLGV

DVL1, O14640 = target: T13, DVL1, O14640
T13 sequence (O14640 246-333, limits assumed, looked up): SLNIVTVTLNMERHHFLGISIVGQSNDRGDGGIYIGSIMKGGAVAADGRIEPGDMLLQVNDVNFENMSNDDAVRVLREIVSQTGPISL

PREX2_2, Q70Z35 = target: T14, PREX2_2, Q70Z35
T14 sequence (Q70Z35 672-764, limits assumed, looked up): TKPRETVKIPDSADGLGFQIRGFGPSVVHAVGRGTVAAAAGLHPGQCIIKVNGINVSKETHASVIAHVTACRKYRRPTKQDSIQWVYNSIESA

Sequence of PARD3B_2, Q8TEW8 (Q8TEW8 376-471): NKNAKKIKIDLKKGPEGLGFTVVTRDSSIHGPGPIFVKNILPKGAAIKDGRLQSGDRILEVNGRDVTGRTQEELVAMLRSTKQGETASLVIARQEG
Sequence of PARD3_1, Q8TEW0 (Q8TEW0 264-372): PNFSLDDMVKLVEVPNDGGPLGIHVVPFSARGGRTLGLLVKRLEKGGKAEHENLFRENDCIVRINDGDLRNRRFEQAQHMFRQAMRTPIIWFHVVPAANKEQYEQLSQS
Sequence of MAGI1_4, Q96QZ7 (Q96QZ7 other isoform, or with tags, fused parts or gaps): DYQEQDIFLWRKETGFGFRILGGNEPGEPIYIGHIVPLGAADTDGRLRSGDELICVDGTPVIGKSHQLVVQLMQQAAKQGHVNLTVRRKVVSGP
Sequence of RIMS2, Q9UQ26 (Q9UQ26 637-758): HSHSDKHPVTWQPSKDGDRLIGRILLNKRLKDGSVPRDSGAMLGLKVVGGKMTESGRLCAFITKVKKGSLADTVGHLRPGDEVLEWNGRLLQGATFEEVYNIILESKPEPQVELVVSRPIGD
Sequence of IL16_2, Q14005 (Q14005 350-450): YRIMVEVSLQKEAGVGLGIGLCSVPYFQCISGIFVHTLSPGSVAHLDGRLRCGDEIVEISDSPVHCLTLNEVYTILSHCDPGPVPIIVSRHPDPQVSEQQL
Sequence of Inadl_7, Q8NI35 (Q8NI35 1219-1332): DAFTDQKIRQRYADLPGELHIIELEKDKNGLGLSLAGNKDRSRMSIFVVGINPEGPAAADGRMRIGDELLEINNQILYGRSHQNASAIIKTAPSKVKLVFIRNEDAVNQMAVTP
Sequence of GIPC3, Q8TF64 (Q8TF64 107-202): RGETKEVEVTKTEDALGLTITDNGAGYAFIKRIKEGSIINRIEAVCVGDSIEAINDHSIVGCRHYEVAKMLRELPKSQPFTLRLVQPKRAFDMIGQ
Sequence of PARD3B_3, Q8TEW8 (Q8TEW8 490-594): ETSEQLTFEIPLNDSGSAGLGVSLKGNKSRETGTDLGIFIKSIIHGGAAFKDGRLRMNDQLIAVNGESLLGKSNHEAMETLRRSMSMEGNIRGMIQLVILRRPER
Sequence of AHNAK2, Q8IVF2 (Q8IVF2 108-193): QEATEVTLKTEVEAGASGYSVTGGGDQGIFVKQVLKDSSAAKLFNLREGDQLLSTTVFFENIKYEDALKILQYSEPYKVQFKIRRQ

Row | Binder | pKd (AHNAK2, Q8IVF2) | pKd (USH1C_2, Q9Y6N9) | pKd (MPP5, Q8N3R9) | pKd (PARD3_1, Q8TEW0) | pKd (RGS12, O14924) | pKd (IL16_2, Q14005) | pKd (PARD3B_2, Q8TEW8) | pKd (RIMS2, Q9UQ26) | pKd (Inadl_7, Q8NI35) | pKd (SHROOM2, Q13796) | pKd (MPDZ_11, O75970) | pKd (PARD3B_3, Q8TEW8) | pKd (SIPA1L3, O60292) | pKd (PDZD2_4, O15018) | pKd (PTPN13_5, Q12923) | pKd (MPDZ_2, O75970) | pKd (PDZD2_6, O15018) | pKd (NHERF1_1, O14745) | pKd (DVL1, O14640) | pKd (PREX2_2, Q70Z35) | further results
1 | KLVIKTETTV [RASSF6, Q6ZTQ3] | below the threshold | below the threshold | below the threshold | below the threshold | below the threshold | 4.38 | below the threshold | below the threshold | 4.51 | below the threshold | below the threshold | below the threshold | below the threshold | below the threshold | below the threshold | below the threshold | below the threshold | below the threshold | below the threshold | below the threshold | pKd (MAGI1_4, Q96QZ7): below the threshold; pKd (SHANK2, Q9UPX8): below the threshold; pKd (GIPC3, Q8TF64): below the threshold
2 | SSIDLWETAL [SLC15A5, A6NIM6] | below the threshold | below the threshold | below the threshold | below the threshold | below the threshold | below the threshold | below the threshold | below the threshold | below the threshold | 5.76 | below the threshold | below the threshold | below the threshold | below the threshold | 4.86 | below the threshold | below the threshold | below the threshold | below the threshold | below the threshold | pKd (MAGI1_4, Q96QZ7): below the threshold; pKd (SHANK2, Q9UPX8): 5.87; pKd (GIPC3, Q8TF64): below the threshold
3 | SHSSKGETAV [FZD7, O75084] | 4.41 | below the threshold | below the threshold | below the threshold | below the threshold | below the threshold | 4.42 | below the threshold | 4.99 | below the threshold | below the threshold | below the threshold | below the threshold | below the threshold | below the threshold | below the threshold | below the threshold | below the threshold | below the threshold | 4.3 | pKd (MAGI1_4, Q96QZ7): below the threshold; pKd (SHANK2, Q9UPX8): below the threshold; pKd (GIPC3, Q8TF64): below the threshold
4 | SRSRRRETAL [HPV33-E6, P06427] | below the threshold | below the threshold | below the threshold | below the threshold | 4.5 | below the threshold | below the threshold | below the threshold | below the threshold | below the threshold | below the threshold | below the threshold | below the threshold | below the threshold | below the threshold | below the threshold | below the threshold | below the threshold | 4.23 | below the threshold | pKd (MAGI1_4, Q96QZ7): below the threshold; pKd (SHANK2, Q9UPX8): below the threshold; pKd (GIPC3, Q8TF64): below the threshold
5 | PPRQRSETQV [HPV82-E6, Q9IR59] | below the threshold | below the threshold | below the threshold | below the threshold | below the threshold | below the threshold | below the threshold | below the threshold | below the threshold | below the threshold | below the threshold | below the threshold | below the threshold | 4.53 | below the threshold | below the threshold | below the threshold | below the threshold | below the threshold | below the threshold | pKd (MAGI1_4, Q96QZ7): 4.2; pKd (SHANK2, Q9UPX8): below the threshold; pKd (GIPC3, Q8TF64): below the threshold
6 | SGGKRKETLV [NET1, Q7Z628] | – | – | below the threshold | below the threshold | below the threshold | below the threshold | below the threshold | below the threshold | below the threshold | below the threshold | 3.72 | below the threshold | below the threshold | below the threshold | below the threshold | 3.75 | below the threshold | below the threshold | below the threshold | 3.79 | –
